Tests used:
Type in all cases: cell-based
C2C12 myoblasts = experiment: C2C12 cell BMP bioassay (transformation of myoblasts into alkaline phosphatase-containing osteoblasts); conditions: conditioned medium of stably transfected CHO cells, compared to medium of untransfected CHO cells
Protocol: BMP activity was measured in the C2C12 cell bioassay, in which BMPs transform C2C12 myoblasts into alkaline phosphatase-containing osteoblasts (Katagiri et al., 1994). Briefly, CHO cells were plated at a density of around 5×10^6 per 75 cm^2 flask in serum-free HYBRIDOMA medium (Gibco BRL Life Technology) (SFHM) containing 10% v/v FCS. Once the cells had reached confluency, the medium was removed, the cells washed twice with SFHM and 10 ml of SFHM then added to each flask. The cells were cultured for four days and the conditioned medium collected, filtered through a 2 micron filter and stored at 4° C.
2×10^3 C2C12 cells were plated into each well of a 96-well tissue culture plate in DME/10% v/v FCS. Twenty-four hours later, the medium was removed and replaced with 100 μl SFHM/1% v/v FCS. 50 μl of each conditioned medium was added in duplicate to the top row of the 96-well plate and the volume of these wells then made up to 200 μl. Using a multi-channel pipette, 100 μl from each well was then serially transferred to subsequent rows thus diluting the conditioned medium 2-fold with each transfer. After incubation for five days, the media were discarded and the cells washed with normal saline. Cells were lysed for 10 mins at room temperature (RT) in 100 μl 0.5% v/v TritonX-100 and 100 mM diethanolamine (pH 9.5) in normal saline. To each well was then added an aqueous solution containing 10 mM diethanolamine, 1 mg/ml p-nitrophenyl phosphate (PNPP) and 0.5 mM MgCl2. The yellow reaction product catalyzed by alkaline phosphatase was allowed to develop for 10-60 mins before reading absorption at 415 nm.

[1] = test system: E15.5 CBA mouse fetal pancreas cells; experiment: Cystic colony formation of E15.5 fetal mouse pancreas cells in laminin-1 overlay culture; conditions: laminin-1 160 μg/ml
Protocol: Pancreata were dissected from embryonic day (E)15.5 CBA mouse fetuses and dissociated into single cells as described (Jiang et al., 1999). Briefly, dissected pancreas was digested with trypsin/EDTA for 15 minutes at 37° C. in a shaking water bath. Cells were counted in a haemocytometer and viability determined by trypan blue dye exclusion. Each fetal pancreas yielded 50,000 viable cells (48,509±11,299, n=14). Dissociated cells were plated in 8 well chamber slides (Nunc, Naperville, USA) at 7.5×10^4 cells/well in 0.3 ml AIM V medium supplemented with N-2 (1:100, Gibco BRL Life Technologies, Gaithersburg, USA), 500 UI/ml penicillin and 500 μg/ml streptomycin. Laminin-1 (160 μg/ml), purified from murine Engelbreth-Holm-Swarm tumor basement membrane (Becton Dickinson Labware, Bedford, USA), was overlayed on cells in the presence of various growth factors. Cultures were incubated in 10% CO2 90% air at 37° C., for up to 6 days. Recombinant human BMP 6 and BMP 5, recombinant human TGF-β1 and recombinant activin A were purchased from R&D Systems (Minneapolis, USA). These factors, dissolved at a concentration of 10 ng/μl in mouse tonicity phosphate buffered saline (PBS) containing 0.1% w/v bovine serum albumin (BSA), were added at the start of culture. Phase contrast images of colonies were photographed with Olympus IX70 digitized camera.
Colony formation was assessed at day 6 of culture. A colony was defined as a cellular sphere ≧30 μm in diameter, which contained more than 20 cells. The number of colonies per well was counted directly under a inverted microscope at ×10. Colony counts were performed using a blind design.

[2] = test system: E15.5 CBA mouse fetal pancreas cells; experiment: as above; conditions: BMP alone

B1: BMP 6: recombinant human BMP 6 purchased from R&D Systems (protein, UniProt P22004 375-513, looked up)
Bone morphogenetic protein 6: SASSRRRQQSRNRSTQSQDVARVSSASDYNSSELKTACRKHELYVSFQDLGWQDWIIAPKGYAANYCDGECSFPLNAHMNATNHAIVQTLVHLMNPEYVPKPCCAPTKLNAISVLYFDDNSNVILKKYRNMVVRACGCH
For B1, which “BMP activity of conditioned medium (alkaline phosphatase activity of C2C12 cells)” value (C2C12 myoblasts) is on record?
Its value is “significant BMP activity was never detected”.

And the “concentration of maximal stimulation of colony formation” value ([1]; day 6, fewer colonies at higher concentrations)?
The value was 10 ng/mL.

What about the “formation of cystic colonies in the presence of laminin-1” value ([1]; up to 6 days) of the same molecule?
The value was “synergized with laminin-1 to promote formation of cystic colonies”.

What about the “colony formation in the absence of laminin-1” value [2] of the same molecule?
Its value is “no effect”.

From patent US6967100B2, “Pancreatic islet cell growth factors” (The Walter and Eliza Hall Institute of Medical Research, priority 2000, dated 2005)
